Test results published in paper PMC4813732.

Experiments:
[1] = target: Human thrombin (human)
[2] = target: Human thrombin (human); remark: listed apart in the source

Row | heparin cofactor activity (residual thrombin activity at the end of thrombin inactivation in the presence of heparin; phAT as standard) [1] [IU/mg] | second-order rate constant of thrombin inhibition, with heparin (residual thrombin activity on S-2238, 25°C, pH 7.4) [2] | second-order rate constant of thrombin inhibition, without heparin (residual thrombin activity on S-2238, 25°C, pH 7.4) [2] | Substance
1 | 0.35 | – | – | latent form of recombinant human antithrombin (from UniProt P01008 33-464) (natural protein)
2 | 5.83 | 1.9e+07 /M/s | 6600 /M/s | α-form of recombinant human antithrombin bearing high-mannose-type N-linked oligosaccharides (from UniProt P01008 33-464) (natural protein)
3 | 5.49 | 1.9e+07 /M/s | – | α-form of recombinant human antithrombin bearing sialylated biantennary complex-type N-linked oligosaccharides lacking a core fucose (from UniProt P01008 33-464) (natural protein)
4 | 5.8 | 1.9e+07 /M/s | 6100 /M/s | β-form of recombinant human antithrombin bearing high-mannose-type N-linked oligosaccharides (from UniProt P01008 33-464) (natural protein)
5 | 5.66 | 2e+07 /M/s | 7300 /M/s | β-form of recombinant human antithrombin bearing sialylated biantennary complex-type N-linked oligosaccharides lacking a core fucose (from UniProt P01008 33-464) (natural protein)
